The results in this text go back to patent US7176008.

Assay [1] concerns the target human carboxypeptidase N (human) (UniProt P15169).
The next assay concerns the target thrombin. The experiment in a line: cell-based or functional assay.

human carboxypeptidase N (human), sequence (P15169 21-458 limits assumed, chain 1 of 2): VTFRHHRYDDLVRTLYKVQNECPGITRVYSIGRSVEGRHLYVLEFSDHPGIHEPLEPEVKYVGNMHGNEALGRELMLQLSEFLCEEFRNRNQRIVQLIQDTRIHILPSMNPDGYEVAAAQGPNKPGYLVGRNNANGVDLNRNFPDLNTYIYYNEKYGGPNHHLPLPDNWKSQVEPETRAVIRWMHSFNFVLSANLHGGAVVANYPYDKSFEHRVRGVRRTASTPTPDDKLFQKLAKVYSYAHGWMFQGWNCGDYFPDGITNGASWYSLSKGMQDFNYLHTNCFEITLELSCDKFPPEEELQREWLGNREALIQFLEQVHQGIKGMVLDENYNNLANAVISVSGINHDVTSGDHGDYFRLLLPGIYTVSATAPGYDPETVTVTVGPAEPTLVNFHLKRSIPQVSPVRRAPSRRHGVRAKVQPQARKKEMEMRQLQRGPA
human carboxypeptidase N (human), sequence (P22792 22-545 limits assumed, chain 2 of 2, further chain): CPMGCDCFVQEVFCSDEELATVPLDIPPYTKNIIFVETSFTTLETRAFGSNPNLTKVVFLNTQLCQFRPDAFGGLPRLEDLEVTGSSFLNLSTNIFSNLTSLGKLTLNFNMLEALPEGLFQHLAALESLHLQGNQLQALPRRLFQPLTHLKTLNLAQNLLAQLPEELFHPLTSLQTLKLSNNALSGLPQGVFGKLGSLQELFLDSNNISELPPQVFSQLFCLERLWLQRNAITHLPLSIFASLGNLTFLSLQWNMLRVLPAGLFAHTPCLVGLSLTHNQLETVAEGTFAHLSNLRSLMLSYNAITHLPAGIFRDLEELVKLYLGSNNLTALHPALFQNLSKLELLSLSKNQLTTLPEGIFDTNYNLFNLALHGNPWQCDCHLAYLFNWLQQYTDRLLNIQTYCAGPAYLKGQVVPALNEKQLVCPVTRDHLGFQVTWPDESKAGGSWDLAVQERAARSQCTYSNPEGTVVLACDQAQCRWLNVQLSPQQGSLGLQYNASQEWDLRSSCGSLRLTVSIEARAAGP

For the substance “protamine sulfate (grade X from salmon, Mr 5,000) (peptide)”, in assay [1], the Ki – broadly, the equilibrium dissociation constant of an inhibitor or competing ligand from its target – came to 970 nM.
In the assay with thrombin, rabbit lung thrombomodulin displayed an increase of TAFIa generation in diluted human plasma of 30 to 35 fold.
